Data: the supplement of paper PMC7877785
± gives the uncertainty stated by the source.

Assay: self-splicing fitness, log relative to wild type (ln ratio); higher = more splicing; Tetrahymena group I intron in knt gene, E. coli kanamycin selection, DiMSum; sequences stand for … in CUCUCU…GGAGGGAAAAGUUAUCAGGCAUGCACCUGGUAGCUAGUCUUUAAACCAAUAGAUUGCAUCGGUUUAAAAGGCAAGACCGUCAAAUUGCGGGAAAGGGGUCAACAGCCGUUCAGUACCAAGUCUCAGGGGAAACUUUGAGAUGGCCUUGCAAAGGGUAUGGUAAUAAGCUGACGGACAUGGUCCUAACCACGCAGCCAAGUCCUAAGUCAACAGAUCUUCUGUUGAUAUGGAUGCAGUUCACAGACUAAAUGUCGGUCGGGGAAGAUGUAUUCUUCUCAUAAGAUAUAGUCGGACCUCUCCUUAAUGGGAGCUAGCGGAUGAAGUGAUGCAACACUGGAGCCGCUGGGAACUAAUUUGUAUGCGAAAGUAUAUUGAUUAGUUUUGGAGUACUCGUGGUCG
Method in brief: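 Fitness was computed with DiMSum as the error-weighted combination of replicate fold changes, kanamycin versus none, each normalised to wild type. The library randomised all eight intron nucleotides of the P1ex region, with the intron placed in the knt kanamycin-resistance gene on pET-22b(+) in E. coli BL21(DE3). Six replicate transformations were grown overnight at 37°C or 30°C on LB agar with or without 25 μg/mL kanamycin, plus 100 μg/mL carbenicillin, 50 μM IPTG and 0.2% rhamnose. Pooled colonies were amplicon-sequenced on an Illumina HiSeq 2500.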

Sequence | self-splicing fitness (ln) (30 °C) | self-splicing fitness (ln) (37 °C)
AAAUAGCAAUAUUACGGUAC | -3.61 ± 0.25 | -2.6 ± 0.3
AAAUAGCAAUAUUACGGUUC | -1.21 ± 0.11 | -0.851 ± 0.16
AAAUAGCAAUAUUACGUAUC | -3.12 ± 0.28 | -1.51 ± 0.19
AAAUAGCAAUAUUACGUAUG | -2.64 ± 0.12 | -2.08 ± 0.13
AAAUAGCAAUAUUACGUCUA | -0.412 ± 0.077 | 0.205 ± 0.084
AAAUAGCAAUAUUACGUCUU | 0.225 ± 0.074 | 0.263 ± 0.092
AAAUAGCAAUAUUACGUGAA | -3.08 ± 0.12 | -0.845 ± 0.097
AAAUAGCAAUAUUACGUGGA | -3.16 ± 0.13 | -2.11 ± 0.099
AAAUAGCAAUAUUACGUUGC | -2.63 ± 0.23 | -2.98 ± 0.3
AACAAGCAAUAUUACGAAGC | -3.15 ± 0.27 | -2.83 ± 0.38
AACAAGCAAUAUUACGACCC | -0.136 ± 0.22 | 0.116 ± 0.24
AACAAGCAAUAUUACGACGG | -2.3 ± 0.14 | -1.93 ± 0.12
AACAAGCAAUAUUACGAGGC | -3.07 ± 0.15 | -3.27 ± 0.28
AACAAGCAAUAUUACGAUAA | -1.62 ± 0.084 | -1.15 ± 0.11
AACAAGCAAUAUUACGAUGC | -2.67 ± 0.14 | -0.922 ± 0.11
AACAAGCAAUAUUACGCACA | 0.157 ± 0.071 | -0.163 ± 0.094
AACAAGCAAUAUUACGCACC | -0.717 ± 0.097 | -0.435 ± 0.14
AACAAGCAAUAUUACGCCCU | 0.18 ± 0.062 | 0.0436 ± 0.08
AACAAGCAAUAUUACGCCUA | -0.12 ± 0.059 | 0.231 ± 0.065
AACAAGCAAUAUUACGCGAU | -3.61 ± 0.17 | -1.57 ± 0.12
AACAAGCAAUAUUACGCGGG | -3.55 ± 0.14 | -2.46 ± 0.15
AACAAGCAAUAUUACGGAGG | -3.19 ± 0.19 | -0.738 ± 0.15
AACAAGCAAUAUUACGGCUG | -0.419 ± 0.059 | -0.225 ± 0.086
AACAAGCAAUAUUACGGGAG | -2.51 ± 0.093 | -1.96 ± 0.1

Sequence | self-splicing fitness (ln) (30 °C) | self-splicing fitness (ln) (37 °C)
AACAAGCAAUAUUACGGGCA | -0.586 ± 0.058 | -0.0288 ± 0.066
AACAAGCAAUAUUACGGGCC | -2.99 ± 0.25 | 0.104 ± 0.19
AACAAGCAAUAUUACGGUUU | -2.73 ± 0.1 | -1.08 ± 0.086
AACAAGCAAUAUUACGUCGA | -1.27 ± 0.087 | -0.532 ± 0.092
AACAAGCAAUAUUACGUGGU | -3.38 ± 0.12 | -1.57 ± 0.1
AACAAGCAAUAUUACGUUGA | -3.31 ± 0.13 | -1.95 ± 0.1
AACAAGCAAUAUUACGUUGU | -2.17 ± 0.074 | -2.39 ± 0.13
AACAAGCAAUAUUACGUUUA | -2.45 ± 0.09 | -1.07 ± 0.074
AACAAGCAAUAUUACGUUUU | -3.22 ± 0.08 | -1.03 ± 0.067
AACCAGCAAUAUUACGACAC | -1.07 ± 0.08 | -0.426 ± 0.1
AACCAGCAAUAUUACGACCC | -0.941 ± 0.1 | 0.421 ± 0.13
AACCAGCAAUAUUACGACCU | -0.404 ± 0.093 | -0.0868 ± 0.1
AACCAGCAAUAUUACGAGGU | -3.14 ± 0.16 | -2.53 ± 0.16
AACCAGCAAUAUUACGAUAC | -2.38 ± 0.084 | -1.39 ± 0.11
AACCAGCAAUAUUACGAUCC | -0.433 ± 0.078 | -0.358 ± 0.12
AACCAGCAAUAUUACGCAAA | -0.829 ± 0.1 | -0.805 ± 0.11
AACCAGCAAUAUUACGCACG | -0.891 ± 0.055 | -0.215 ± 0.078
AACCAGCAAUAUUACGCGGU | -4.38 ± 0.19 | -2.43 ± 0.15
AACCAGCAAUAUUACGGAAG | -1.22 ± 0.066 | 0.117 ± 0.089
AACCAGCAAUAUUACGGAGU | -1.66 ± 0.048 | -0.881 ± 0.064
AACCAGCAAUAUUACGGCAU | 0.127 ± 0.053 | 0.376 ± 0.067
AACCAGCAAUAUUACGGCCU | 0.12 ± 0.075 | -0.853 ± 0.082
AACCAGCAAUAUUACGGUAU | -2 ± 0.071 | -0.457 ± 0.08
AACCAGCAAUAUUACGUCGA | -0.87 ± 0.071 | -0.757 ± 0.07

Sequence | self-splicing fitness (ln) (30 °C) | self-splicing fitness (ln) (37 °C)
AACCAGCAAUAUUACGUGCA | -0.671 ± 0.055 | -0.0717 ± 0.072
AACCAGCAAUAUUACGUUAU | -2.18 ± 0.055 | -0.941 ± 0.058
AACGAGCAAUAUUACGAAGU | -2.75 ± 0.17 | -2.86 ± 0.31
AACGAGCAAUAUUACGAGAU | -4.25 ± 0.36 | -3.02 ± 0.3
AACGAGCAAUAUUACGAUGA | -3.91 ± 0.46 | -2.08 ± 0.22
AACGAGCAAUAUUACGAUUG | -4.09 ± 0.23 | -1.56 ± 0.23
AACGAGCAAUAUUACGCCUC | -2.71 ± 0.28 | -1.53 ± 0.17
AACGAGCAAUAUUACGCCUU | -3.47 ± 0.16 | -1.8 ± 0.11
AACGAGCAAUAUUACGCGAU | -3.04 ± 0.26 | -1.99 ± 0.3
AACGAGCAAUAUUACGCGCG | -1.81 ± 0.28 | -1.75 ± 0.28
AACGAGCAAUAUUACGGAAA | -3.63 ± 0.23 | -2.65 ± 0.24
AACGAGCAAUAUUACGGACA | -2.38 ± 0.12 | -1.57 ± 0.11
AACGAGCAAUAUUACGGAUA | -2.98 ± 0.22 | -1.85 ± 0.29
AACGAGCAAUAUUACGGGUA | -2.96 ± 0.17 | -0.912 ± 0.11
AACGAGCAAUAUUACGGUCG | -2.14 ± 0.13 | -1.02 ± 0.14
AACGAGCAAUAUUACGUACU | -1.04 ± 0.067 | -1.04 ± 0.079
AACGAGCAAUAUUACGUCCA | -2.92 ± 0.3 | -1.92 ± 0.21
AACGAGCAAUAUUACGUGGA | -2.62 ± 0.33 | -2.15 ± 0.19
AACGAGCAAUAUUACGUGGU | -4.57 ± 0.27 | -2.94 ± 0.17
AACGAGCAAUAUUACGUUUA | -3.12 ± 0.2 | -2.64 ± 0.21
AACUAGCAAUAUUACGAAAA | -1.53 ± 0.16 | -1.75 ± 0.17
AACUAGCAAUAUUACGAAAG | -2.79 ± 0.15 | -1.61 ± 0.18
AACUAGCAAUAUUACGAACG | -0.824 ± 0.083 | -0.339 ± 0.12
AACUAGCAAUAUUACGAGCA | -1.68 ± 0.12 | -0.209 ± 0.11

Sequence | self-splicing fitness (ln) (30 °C) | self-splicing fitness (ln) (37 °C)
AACUAGCAAUAUUACGAUGC | -1.25 ± 0.12 | -2.06 ± 0.25
AACUAGCAAUAUUACGAUUA | -0.307 ± 0.087 | -0.0303 ± 0.11
AACUAGCAAUAUUACGAUUU | -0.0161 ± 0.059 | -0.157 ± 0.075
AACUAGCAAUAUUACGCAGA | -3.43 ± 0.37 | -0.413 ± 0.15
AACUAGCAAUAUUACGCCGA | -1.74 ± 0.18 | -0.583 ± 0.18
AACUAGCAAUAUUACGCGAU | -2.64 ± 0.15 | -2.22 ± 0.17
AACUAGCAAUAUUACGCGGG | -2.78 ± 0.15 | -2.37 ± 0.19
AACUAGCAAUAUUACGCUUA | -0.632 ± 0.087 | -0.749 ± 0.11
AACUAGCAAUAUUACGGACA | -0.804 ± 0.15 | -0.48 ± 0.13
AACUAGCAAUAUUACGGAUA | -2.79 ± 0.25 | -1.2 ± 0.23
AACUAGCAAUAUUACGGCAA | -1.01 ± 0.076 | -0.905 ± 0.09
AACUAGCAAUAUUACGGUAG | -2.06 ± 0.11 | 0.0456 ± 0.12
AACUAGCAAUAUUACGGUGU | -1.77 ± 0.083 | -0.956 ± 0.099
AACUAGCAAUAUUACGUAAG | -1.22 ± 0.084 | -1.65 ± 0.11
AACUAGCAAUAUUACGUCAG | -3.51 ± 0.18 | -1.57 ± 0.15
AACUAGCAAUAUUACGUCCC | -0.0622 ± 0.15 | 0.182 ± 0.16
AACUAGCAAUAUUACGUCCG | -1.74 ± 0.11 | -0.228 ± 0.13
AAGAAGCAAUAUUACGAACA | -1.06 ± 0.16 | -0.0339 ± 0.16
AAGAAGCAAUAUUACGACAA | -0.745 ± 0.098 | -0.224 ± 0.12
AAGAAGCAAUAUUACGAGAA | -2.07 ± 0.26 | -1.87 ± 0.19
AAGAAGCAAUAUUACGAUAA | -1.11 ± 0.12 | -1.07 ± 0.15
AAGAAGCAAUAUUACGAUGC | -2.61 ± 0.13 | -1.76 ± 0.17
